Biological target: T1, CD6 (basal, native) on non-transduced T cells (human, UniProt P30203 18-668)
T1 construct: whole, on cells; also called basal CD6 expression on normal T cells
T1 sequence (looked up): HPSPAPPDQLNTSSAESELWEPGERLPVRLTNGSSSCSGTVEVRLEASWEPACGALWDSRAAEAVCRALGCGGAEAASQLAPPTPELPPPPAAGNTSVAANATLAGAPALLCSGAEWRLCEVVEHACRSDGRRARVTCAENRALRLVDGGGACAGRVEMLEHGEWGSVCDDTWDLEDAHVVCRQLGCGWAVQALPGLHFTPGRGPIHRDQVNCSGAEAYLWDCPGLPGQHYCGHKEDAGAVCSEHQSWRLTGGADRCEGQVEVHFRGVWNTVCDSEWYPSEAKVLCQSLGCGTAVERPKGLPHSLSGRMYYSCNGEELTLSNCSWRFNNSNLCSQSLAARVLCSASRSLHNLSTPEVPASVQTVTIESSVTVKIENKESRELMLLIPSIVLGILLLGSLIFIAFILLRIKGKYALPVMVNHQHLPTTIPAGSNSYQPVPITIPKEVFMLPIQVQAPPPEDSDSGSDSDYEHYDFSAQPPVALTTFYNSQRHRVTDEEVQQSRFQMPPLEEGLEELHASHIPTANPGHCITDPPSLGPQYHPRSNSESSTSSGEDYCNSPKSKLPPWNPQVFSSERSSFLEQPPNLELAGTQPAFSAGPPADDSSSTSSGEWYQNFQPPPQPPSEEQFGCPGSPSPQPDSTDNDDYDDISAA
Assay: flow cytometry; non-transduced T cells stained with ALCAM-Fc and anti-human IgG1 Fc FITC
Protocol: A) FACS analysis was used to confirm ALCAM specific binding to MBE CD6 D3 constructs on the surface of primary T cells. Cells were incubated with IgG1 Fc linked recombinant human ALCAM followed by an anti-human IgG1 Fc FITC conjugated Ab (filled black histogram). Staining of cells with anti-human IgG1 Fc FITC alone (open grey histogram), staining of non-transduced T cells (NT) (dotted open histogram) served as control for basal CD6 expression on normal T cells which bind natively to ALCAM.Fc. and percentage transduction is determined after staining of monomer, monomer+signaling domain, trimer, trimer+signaling domain, pentamer and pentamer+signaling domain (grey-filled histogram) (FIG. 6).

binding result: binds
B1: IgG1 Fc linked recombinant human ALCAM (Fc fusion, UniProt Q13740 28-527, looked up)
chain: WYTVNSAYGDTIIIPCRLDVPQNLMFGKWKYEKPDGSPVFIAFRSSTKKSVQYDDVPEYKDRLNLSENYTLSISNARISDEKRFVCMLVTEDNVFEAPTIVKVFKQPSKPEIVSKALFLETEQLKKLGDCISEDSYPDGNITWYRNGKVLHPLEGAVVIIFKKEMDPVTQLYTMTSTLEYKTTKADIQMPFTCSVTYYGPSGQKTIHSEQAVFDIYYPTEQVTIQVLPPKNAIKEGDNITLKCLGNGNPPPEEFLFYLPGQPEGIRSSNTYTLTDVRRNATGDYKCSLIDKKSMIASTAITVHYLDLSLNPSGEVTRQIGDALPVSCTISASRNATVVWMKDNIRLRSSPSFSSLHYQDAGNYVCETALQEVEGLKKRESLTLIVEGKPQIKMTKKTDPSGLSKTIICHVEGFPKPAIQWTITGSGSVINQTEESPYINGRYYSKIIISPEENVTLTCTAENQLERTVNSLNVSAISIPEHDEADEISDENREKVNDQAK
notes: also called ALCAM-fc; ALCAM-Fc; not shown: IgG1 Fc (detected with anti-human IgG1 Fc antibody)

From patent publication US20220313831A1 (BAYLOR COLLEGE OF MEDICINE, published 2022)
